Experimental data reported in patent US20210275669A1.

Tests used:
[1] = molecular target: CTLA-4 on PATHHUNTER CTLA4 Jurkat cells, P16410; assay: cell-based or functional assay
[2] = molecular target: PD-1 on PATHHUNTER PD-1 Jurkat cells, Q15116; assay: cell-based or functional assay
PD-1 on PATHHUNTER PD-1 Jurkat cells, Q15116, sequence (Q15116 25-288 limits assumed): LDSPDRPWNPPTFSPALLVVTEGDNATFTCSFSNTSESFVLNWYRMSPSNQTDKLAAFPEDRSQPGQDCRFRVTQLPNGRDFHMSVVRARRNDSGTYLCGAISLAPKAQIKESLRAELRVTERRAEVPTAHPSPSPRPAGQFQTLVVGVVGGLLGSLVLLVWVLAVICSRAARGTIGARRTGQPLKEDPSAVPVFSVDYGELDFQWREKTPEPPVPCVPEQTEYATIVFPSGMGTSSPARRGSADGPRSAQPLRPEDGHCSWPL

CTLA-4 on PATHHUNTER CTLA4 Jurkat cells, P16410, sequence (P16410 36-223 limits assumed): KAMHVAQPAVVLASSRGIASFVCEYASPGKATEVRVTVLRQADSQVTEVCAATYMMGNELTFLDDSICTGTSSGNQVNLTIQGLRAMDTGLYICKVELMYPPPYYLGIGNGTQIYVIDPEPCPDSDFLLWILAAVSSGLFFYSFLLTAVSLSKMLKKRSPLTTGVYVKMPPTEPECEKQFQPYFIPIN

B1: peptide LD01 (peptide)
peptide: CRRTSTGQISTLRVNITAPLSQ
modifications: not checked
% inhibition (PATHHUNTER CTLA4 assay; 100 µM; Study 2) [1]: 51% | % inhibition (PATHHUNTER CTLA4 assay; 100 µM; Study 4) [1]: 16% | % inhibition (PATHHUNTER CTLA4 assay; 100 µM; Study 6) [1]: 46% | % inhibition (PATHHUNTER PD-1 assay; 100 µM; Study 1) [2]: 50.5% | % inhibition (PATHHUNTER PD-1 assay; 100 µM; Study 2) [2]: 79% | % inhibition (PATHHUNTER PD-1 assay; 100 µM; Study 4) [2]: 65% | % inhibition (PATHHUNTER PD-1 assay; 100 µM; Study 5) [2]: 24% | % inhibition (PATHHUNTER PD-1 assay; 100 µM; Study 6) [2]: 83%
